Test results from PMC7518326 (2020).

Target: T1, BBI (Bcl9 peptide) 351-357 (Homo sapiens, UniProt O00512)
T1 chain: LSQEQLE

B1: β-catenin (protein)
chain: ATQADLMELDMAMEPDRKAAVSHWQQQSYLDSGIHSGATTTAPSLSGKGNPEEEDVDTSQVLYEWEQGFSQSFTQEQVADIDGQYAMTRAQRVRAAMFPETLDEGMQIPSTQFDAAHPTNVQRLAEPSQMLKHAVVNLINYQDDAELATRAIPELTKLLNDEDQVVVNKAAVMVHQLSKKEASRHAIMRSPQMVSAIVRTMQNTNDVETARCTAGTLHNLSHHREGLLAIFKSGGIPALVKMLGSPVDSVLFYAITTLHNLLLHQEGAKMAVRLAGGLQKMVALLNKTNVKFLAITTDCLQILAYGNQESKLIILASGGPQALVNIMRTYTYEKLLWTTSRVLKVLSVCSSNKPAIVEAGGMQALGLHLTDPSQRLVQNCLWTLRNLSDAATKQEGMEGLLGTLVQLLGSDDINVVTCAAGILSNLTCNNYKNKMMVCQVGGIEALVRTVLRAGDREDITEPAICALRHLTSRHQEAEMAQNAVRLHYGLPVVVKLLHPPSHWPLIKATVGLIRNLALCPANHAPLREQGAIPRLVQLLVRAHQDTQRRTSMGGTQQQFVEGVRMEEIVEGCTGALHILARDVHNRIVIRGLNTIPLFVQLLYSPIENIQRVAAGVLCELAQDKEAAEAIEAEGATAPLTELLHSRNEGVATYAAAVLFRMSEDKPQDYKKRLSVELTSSLFRTEPMAWNETADLGLDIGAQGEPLGYRQDDPSYRSFHSGGYGQDALGMDPMMEHEMGGHHPGADYPVDGLPDLGHAQDLMDGLPPGDSNQLAWFDTDL
B1 gave a Kd of ~1 µM.
